# Measured values from PMC11564870.
# T1: Monbr Sox-like HMG (Monosiga brevicollis, UniProt A9VCR9 107-175)
# T1 sequence: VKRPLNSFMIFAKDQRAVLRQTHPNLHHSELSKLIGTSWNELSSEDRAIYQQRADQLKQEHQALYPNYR
# B1: Sox consensus (dsDNA)
# DNA 1: GGCGGCGGCATTGTCCGGCGCGCGG
# DNA 2: CCGCGCGCCGGACAATGCCGCCGCC
# B2: SoxOct canonical (dsDNA)
# DNA 1: GCGGCATTGTCATGCAAATCGGCGG
# DNA 2: CCGCCGATTTGCATGACAATGCCGC
# Key:
# [1] = target: T1, Monbr Sox-like HMG; experiment: EMSA
# [2] = target: mOct4 POU;mSox2 HMG (mouse;mouse, UniProt P20263;P48432 131-282;41-119, |); experiment: EMSA
# mOct4 POU;mSox2 HMG, sequence (P20263 131-282, chain 1 of 2): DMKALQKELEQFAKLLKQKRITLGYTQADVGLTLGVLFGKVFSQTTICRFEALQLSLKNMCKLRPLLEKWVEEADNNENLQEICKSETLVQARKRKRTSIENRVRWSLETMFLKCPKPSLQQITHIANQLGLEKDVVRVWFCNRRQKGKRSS
# mOct4 POU;mSox2 HMG, sequence (P48432 41-119, chain 2 of 2): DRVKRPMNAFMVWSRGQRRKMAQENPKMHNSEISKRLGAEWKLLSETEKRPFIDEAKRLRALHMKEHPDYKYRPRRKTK
Binder,binding result [1],binding result [2]
B1,no binding,
B2,,binds
